The record followed here is patent US20210238276A1 (INTEGRAL MOLECULAR, published 2021).

Assay in all cases: flow cytometry, alanine-scan library in HEK-293T, with cytochalasin B
For orientation: In flow cytometry, cells or beads pass a laser one at a time.

One assay addresses T1, hsGLUT4 Y309A (human, UniProt P14672 1-509).
T1 sequence: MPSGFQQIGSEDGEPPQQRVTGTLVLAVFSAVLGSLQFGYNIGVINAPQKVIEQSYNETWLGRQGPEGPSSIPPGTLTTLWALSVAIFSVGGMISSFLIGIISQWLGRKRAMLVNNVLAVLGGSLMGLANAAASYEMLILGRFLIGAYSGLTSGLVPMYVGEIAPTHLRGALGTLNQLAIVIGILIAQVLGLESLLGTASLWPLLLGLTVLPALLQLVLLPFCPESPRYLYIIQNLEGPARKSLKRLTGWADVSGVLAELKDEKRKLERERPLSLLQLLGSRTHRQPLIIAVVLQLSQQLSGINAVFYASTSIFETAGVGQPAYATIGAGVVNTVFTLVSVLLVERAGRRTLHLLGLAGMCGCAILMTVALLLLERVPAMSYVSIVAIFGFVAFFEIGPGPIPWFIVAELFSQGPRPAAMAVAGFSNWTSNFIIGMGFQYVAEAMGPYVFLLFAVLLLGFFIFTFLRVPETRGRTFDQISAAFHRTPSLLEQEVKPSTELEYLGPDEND
A digest of the protocol:
(§1)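 HEK-293T cells expressing individual GLUT4 alanine mutants were stained 48 h post-transfection with anti-GLUT4 scFv MAbs (2 μg/ml), then biotinylated secondary and streptavidin-PerCP, and read by high-throughput flow cytometry. Where used, cytochalasin B (10 uM final) was given for 30 min before and during primary antibody staining.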

The target of a further assay is T2, hsGLUT4 F405A (human, UniProt P14672 1-509).
T2 sequence: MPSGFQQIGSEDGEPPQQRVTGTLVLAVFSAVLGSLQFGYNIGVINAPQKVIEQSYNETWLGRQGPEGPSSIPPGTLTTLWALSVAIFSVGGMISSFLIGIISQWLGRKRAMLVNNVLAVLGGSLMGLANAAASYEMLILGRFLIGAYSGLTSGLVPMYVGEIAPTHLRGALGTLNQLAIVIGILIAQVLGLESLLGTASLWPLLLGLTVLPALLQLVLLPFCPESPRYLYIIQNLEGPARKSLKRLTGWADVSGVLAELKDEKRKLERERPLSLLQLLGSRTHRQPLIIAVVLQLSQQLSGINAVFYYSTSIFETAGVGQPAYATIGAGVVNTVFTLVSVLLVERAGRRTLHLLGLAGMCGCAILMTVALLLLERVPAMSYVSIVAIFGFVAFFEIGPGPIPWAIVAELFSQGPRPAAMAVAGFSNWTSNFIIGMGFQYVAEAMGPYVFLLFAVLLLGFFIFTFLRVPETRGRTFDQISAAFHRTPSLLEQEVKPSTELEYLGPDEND
A digest of the protocol:
as §1

The next assay deals with T3, hsGLUT4 M158A (human, UniProt P14672 1-509).
T3 sequence: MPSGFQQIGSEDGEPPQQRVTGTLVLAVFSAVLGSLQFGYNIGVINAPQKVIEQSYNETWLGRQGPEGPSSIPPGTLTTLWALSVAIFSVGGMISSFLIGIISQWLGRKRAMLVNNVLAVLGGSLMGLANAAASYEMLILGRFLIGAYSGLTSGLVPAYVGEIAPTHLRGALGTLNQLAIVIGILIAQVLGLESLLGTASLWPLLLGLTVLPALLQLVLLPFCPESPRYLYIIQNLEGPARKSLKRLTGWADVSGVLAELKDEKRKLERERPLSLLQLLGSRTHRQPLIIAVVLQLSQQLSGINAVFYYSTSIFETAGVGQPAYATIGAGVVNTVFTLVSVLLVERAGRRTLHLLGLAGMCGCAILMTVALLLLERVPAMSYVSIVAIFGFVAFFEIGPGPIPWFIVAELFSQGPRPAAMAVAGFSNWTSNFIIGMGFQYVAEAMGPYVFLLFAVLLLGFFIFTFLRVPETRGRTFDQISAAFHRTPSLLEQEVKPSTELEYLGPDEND
A digest of the protocol:
as §1

The target of another assay is T4, hsGLUT4 G414A (human, UniProt P14672 1-509).
T4 sequence: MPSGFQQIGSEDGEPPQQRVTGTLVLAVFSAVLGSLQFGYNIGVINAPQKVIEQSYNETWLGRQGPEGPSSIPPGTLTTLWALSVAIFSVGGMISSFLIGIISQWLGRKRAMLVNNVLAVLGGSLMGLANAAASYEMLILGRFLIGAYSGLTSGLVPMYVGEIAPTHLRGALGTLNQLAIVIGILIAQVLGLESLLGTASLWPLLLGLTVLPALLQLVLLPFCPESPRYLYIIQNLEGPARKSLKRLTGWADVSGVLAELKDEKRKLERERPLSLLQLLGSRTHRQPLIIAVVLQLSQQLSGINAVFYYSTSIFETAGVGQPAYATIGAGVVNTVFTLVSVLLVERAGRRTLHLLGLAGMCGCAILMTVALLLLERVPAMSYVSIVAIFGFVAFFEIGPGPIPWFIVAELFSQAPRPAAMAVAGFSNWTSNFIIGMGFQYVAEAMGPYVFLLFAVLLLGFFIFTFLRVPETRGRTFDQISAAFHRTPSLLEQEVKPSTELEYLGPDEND
The method, boiled down:
as §1

B1: AB102 (Fc fusion)
scFv: ALTQPSSVSANLGGTVKITCSGGGSYGYGWYQQKSPGSAPVTVIYSNDQRPSDIPSRFSGSKSGSTATLTITGVRAEDEAIYYCGSTDSDYVGIFGAGTTLTVLGQSSRSSGGGGSSGGGGSAVTLDESGGGLQTPGGTLSLVCKASGFDFSSYATIWVRQAPGKGLEWVAGISGTGTGSSTGYAPAVKGRATISRDNGQSTVRLQLNNLRAEDTGSYFCAKSTGYGDSWIYPDSIDAWGHGTEVIVSS
notes: also called MAb AB102; not shown: Fc fragment of human IgG1, cloned in frame with the scFv
For the molecule B1, the “% of binding to wild type GLUT4” value came out at 24% with hsGLUT4 Y309A, 105% with hsGLUT4 F405A, 85% in the assay with hsGLUT4 M158A and 23% with hsGLUT4 G414A.
